From PMC12723161

Columns and labels:
[1] = molecular target: Chlamydomonas reinhardtii animal-like cryptochrome (CraCRY), wild type (Chlamydomonas reinhardtii); assay: SEC; dimer peak collected from SEC, kept in the dark, second round of SEC
[2] = molecular target: Chlamydomonas reinhardtii animal-like cryptochrome (CraCRY), wild type (Chlamydomonas reinhardtii); assay: SEC; concentration series, blue light 4 min; HEPES pH 7.4, 150 mM NaCl; Superdex 200 Increase 10/300, room temperature, in darkness; dimer fraction from peak areas
[3] = molecular target: GST-fused ROC15 (GARP), the active domain of Rhythm Of Clock 15; assay: GST pull-down, SDS-PAGE band intensity ratio; conditions: absence of reducing agents, read off a plot
[4] = molecular target: CraCRY Y373E (Chlamydomonas reinhardtii); assay: SEC; time-lapse dimerization under blue light (450 nm, 100 W/m^2); 6 mg/mL in HEPES pH 7.4, 150 mM NaCl; Superdex 200 Increase 10/300, room temperature, in darkness; dimer fraction from peak areas
[5] = molecular target: CraCRY Y373R (Chlamydomonas reinhardtii); assay: as above
[6] = lit (blue light), parent: est. 0.15

Row | response ([3]; dark, parent: est. 0.03) | response [3, 6] | Substance | other results
1 | – | – | Chlamydomonas reinhardtii animal-like cryptochrome (CraCRY), wild type (natural protein) | stoichiometry N [1]: 2; dimer fraction (percent of elution peak area) [2]: 20%
2 | 0.045 | 0.85 | Chlamydomonas reinhardtii animal-like cryptochrome (CraCRY), wild type Y373W | –
3 | 0.05 | 0.58 | Chlamydomonas reinhardtii animal-like cryptochrome (CraCRY), wild type Y373W; N395C | –
4 | – | – | CraCRY Y373E (natural protein) | dimer fraction (percent of elution peak area) [4]: 50%
5 | – | – | CraCRY Y373R (natural protein) | dimer fraction (percent of elution peak area) [5]: 50%
